The target in data set [1] is T1, ABCA1 (Mus musculus, UniProt P41233).
T1 construct: host or cells: J774 mouse macrophages stimulated with Cpt-cAMP
The data set is described as follows: ABCA1-mediated cholesterol efflux from cAMP-treated J774 macrophages. In kind it is cell-based. Particulars: mean ± SD. The text has this: BHK cells stably transfected with an ABCA1 or ABCG1 expression vector that is mifepristone inducible and cells transfected with the same vector lacking the ABCA1 cDNA insert (mutant or mock-transfected) were generously provided by the late Dr. John F. Oram from the Department of Medicine, University of Washington, and were characterized and cultured as previously described. […] Mouse-derived peritoneal macrophages J774 were purchased from American Tissue Culture Collection (ATCC TIB-67, Cederlane, Burlington, Canada). For induction of ABCA1, BHK cells were incubated for 18–20 h with 10 nM mifepristone. J774 macrophages were stimulated with 0.3 mM Cpt-cAMP 8-(4-Chlorophenylthio)-cyclic adenosine monophosphate (Sigma). […]
All cell culture incubations were performed at 37 °C in a humidified 5% CO2. […] Media were collected, centrifuged at 3.000 g for 5min to remove cell debris, and counted for radioactivity. […] Further, 0.2 ml cells lysates were mixed with scintillation liquid and counted for radioactivity. […] Cholesterol efflux was calculated according to the following formula as the percentage of ^3H-cpm medium/(^3H-cpm medium + ^3H-cpm cells) x 100%. Efflux efficiency (Km) was calculated using the Michaelis-Menten equation (Graph-Pad Prism6 software) respectively (S1, S8 and S9 Figs.)

Data set [2] addresses ABCA1 (Homo sapiens, UniProt O95477). The data set is described as follows: ABCA1-mediated cholesterol efflux from BHK-ABCA1 cells after pre-incubation of acceptor in human plasma. In kind it is cell-based. Also on record: expressed in transfected cells; host or cells: BHK cells, stably transfected, induced with 10 nM mifepristone (gift of J. F. Oram). On the procedure: We investigated cholesterol efflux from BHK cells after adding lipid free CS-6253 to media cell culture or to human EDTA-plasma which had been stored at -80°C. BHK overexpressing human ABCA1 were labeled with 2 μCi/ml ^3H-free cholesterol (Perkin Elmer, Norwalk, Connecticut) for 24 h. Afterward, BHK-ABCA1 were stimulated with 10 nmol/l mifepristone for 18–20 h (13). Cells were incubated with various doses of acceptor in media for 4 h at 37°C. Alternatively, plasma samples were first pre-incubated for 5 min at 37°C in plasma at mole ratios (10:1 or 1:1 relative to plasma apo A-I). To obtain the HDL fraction, apoB lipoproteins were precipitated from plasma by polyethylene glycol (PEG). Also, increased doses of lipid free CS-6253 and nHDL-CS-6253 were tested for cholesterol efflux after incubation with human plasma for optimum 1h at 37°C. ^3[H]-cholesterol loaded BHK cells expressing ABCA1 were incubated with 2.8% apoB depleted plasma samples [19] for 4 h for the efflux assays. Lipid free apo A-I and nHDL-apo A-I were used as control, nHDL-CS-6253 and nHDL-apo A-I were generated after incubation with BHK cells expressing ABCA1. Direct comparisons with peptide ATI-5261 are provided using identical protocols (12).
Fig 7 Dose dependent effects of pre-incubation of plasma with lipid free CS-6253, or nHDL-CS-6253 on ABCA1 cholesterol efflux. A. Increased doses of lipid free CS-6253 or apo A-I were added to normolipidemic plasma and incubated for 1h at 37°C. A volume of 2.8% of HDL fractions isolated by PEG was used for the measurements of cholesterol efflux from BHK cells expressing ABCA1 and mock cells. […] B. nHDL-CS-6253 and nHDL-apo A-I were generated as indicated above. nHDL particles were incubated in plasma for 1h at 37°C, and specific HDL fractions isolated by PEG were subjected to cholesterol efflux in ^3[H]-radiolabelled BHK cells. […] C. Mobilization of cholesterol efflux of increasing concentrations of peptide: plasma apo A-I molar ratios: (1:0) (closed circles), (1:10) (upright closed triangles), and (1:1) (closed squares). (C inset). The double reciprocal-plot was used to calculate the apparent appKm of the efflux activity in peptide: plasma with indicated ratios. Kinetics values are as follows, molar ratio of plasma apo A-I: CS-6253 (1:0); appKm (28±0.07 μM). Molar ratio of plasma apo A-I: CS-6253 (1:1); appKm (4.17±0.47 μM). Molar ratio of plasma apo A-I: CS-6253 (1:10); appKm (0.71±0.46 μM). D. Lipid free CS-6253 was incubated with normolipidemic plasma, using peptide: apo A-I mole ratio of (1:1) for 5 min at 37°C versus plasma alone. Isolated HDL fractions by PEG were separated by 2D-PAGGE and HDL subpopulations were detected by apo A-I Western blot. Molecular size markers are shown. In all experiments, efflux of ^3[H]cholesterol is shown as means ± SD of triplicate experiments.

Values joined by “and” are separate entries in the source; they are usually repeats but may differ in a detail not shown here. Identical values can stand only once. Like-named read-outs stand apart in the source and are kept apart here.

ABCA1 (Homo sapiens, UniProt O95477), sequence (O95477 whole entry): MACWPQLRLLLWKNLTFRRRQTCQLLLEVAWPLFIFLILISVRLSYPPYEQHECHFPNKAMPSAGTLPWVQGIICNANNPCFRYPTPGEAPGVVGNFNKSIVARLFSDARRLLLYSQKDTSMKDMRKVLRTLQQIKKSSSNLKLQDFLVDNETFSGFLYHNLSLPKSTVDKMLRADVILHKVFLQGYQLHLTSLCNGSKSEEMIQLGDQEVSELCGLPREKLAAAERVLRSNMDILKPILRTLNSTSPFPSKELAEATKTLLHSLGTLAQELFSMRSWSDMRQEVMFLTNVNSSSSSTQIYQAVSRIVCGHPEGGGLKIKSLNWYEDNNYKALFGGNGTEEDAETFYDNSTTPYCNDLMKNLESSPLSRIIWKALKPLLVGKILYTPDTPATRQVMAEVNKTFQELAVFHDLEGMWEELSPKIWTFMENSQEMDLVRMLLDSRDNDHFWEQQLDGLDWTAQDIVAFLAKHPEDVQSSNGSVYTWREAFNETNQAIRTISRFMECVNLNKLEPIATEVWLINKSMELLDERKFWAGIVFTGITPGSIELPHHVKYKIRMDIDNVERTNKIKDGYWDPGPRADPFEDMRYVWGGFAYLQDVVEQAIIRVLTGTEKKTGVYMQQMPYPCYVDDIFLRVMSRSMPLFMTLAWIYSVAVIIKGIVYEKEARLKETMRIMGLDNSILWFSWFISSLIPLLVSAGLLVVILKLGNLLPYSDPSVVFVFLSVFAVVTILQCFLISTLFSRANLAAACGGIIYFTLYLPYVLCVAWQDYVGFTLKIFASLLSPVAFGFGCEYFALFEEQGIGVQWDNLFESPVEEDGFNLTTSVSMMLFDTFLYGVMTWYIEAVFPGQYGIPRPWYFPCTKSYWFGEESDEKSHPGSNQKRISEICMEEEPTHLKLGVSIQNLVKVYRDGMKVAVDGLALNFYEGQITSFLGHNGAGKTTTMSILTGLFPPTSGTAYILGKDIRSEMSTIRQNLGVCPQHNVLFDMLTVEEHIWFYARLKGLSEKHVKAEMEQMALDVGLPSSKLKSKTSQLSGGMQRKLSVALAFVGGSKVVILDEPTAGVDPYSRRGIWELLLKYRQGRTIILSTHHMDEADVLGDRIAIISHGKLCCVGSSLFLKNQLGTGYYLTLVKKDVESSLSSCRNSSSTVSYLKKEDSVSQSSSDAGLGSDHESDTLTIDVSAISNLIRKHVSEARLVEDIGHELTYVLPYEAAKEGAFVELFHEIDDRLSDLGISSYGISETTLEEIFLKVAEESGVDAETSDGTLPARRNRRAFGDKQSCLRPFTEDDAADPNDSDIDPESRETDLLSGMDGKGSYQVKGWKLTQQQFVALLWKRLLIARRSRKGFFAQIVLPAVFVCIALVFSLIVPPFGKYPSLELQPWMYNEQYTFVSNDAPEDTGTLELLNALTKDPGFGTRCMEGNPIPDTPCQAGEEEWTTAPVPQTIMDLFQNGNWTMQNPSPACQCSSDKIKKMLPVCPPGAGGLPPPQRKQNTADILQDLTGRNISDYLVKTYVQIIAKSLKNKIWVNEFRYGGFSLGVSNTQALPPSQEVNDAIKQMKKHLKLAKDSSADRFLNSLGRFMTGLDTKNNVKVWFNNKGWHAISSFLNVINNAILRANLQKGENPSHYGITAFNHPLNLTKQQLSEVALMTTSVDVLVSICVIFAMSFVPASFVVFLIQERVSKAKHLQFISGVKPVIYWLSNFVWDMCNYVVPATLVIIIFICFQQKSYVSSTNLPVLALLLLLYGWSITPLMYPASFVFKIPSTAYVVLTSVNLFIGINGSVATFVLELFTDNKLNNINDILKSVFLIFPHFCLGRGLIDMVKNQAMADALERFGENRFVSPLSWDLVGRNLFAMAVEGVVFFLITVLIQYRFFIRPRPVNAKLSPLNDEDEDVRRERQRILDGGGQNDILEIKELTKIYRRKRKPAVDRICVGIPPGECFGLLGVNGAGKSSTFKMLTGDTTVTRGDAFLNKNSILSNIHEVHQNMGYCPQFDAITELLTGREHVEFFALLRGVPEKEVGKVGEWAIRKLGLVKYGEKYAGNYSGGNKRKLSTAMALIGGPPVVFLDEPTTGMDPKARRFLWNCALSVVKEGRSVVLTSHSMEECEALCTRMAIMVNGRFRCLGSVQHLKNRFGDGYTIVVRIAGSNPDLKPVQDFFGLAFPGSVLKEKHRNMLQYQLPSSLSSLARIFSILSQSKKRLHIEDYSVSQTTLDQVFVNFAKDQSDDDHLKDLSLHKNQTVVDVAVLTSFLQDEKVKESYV
T1 sequence (P41233 whole entry): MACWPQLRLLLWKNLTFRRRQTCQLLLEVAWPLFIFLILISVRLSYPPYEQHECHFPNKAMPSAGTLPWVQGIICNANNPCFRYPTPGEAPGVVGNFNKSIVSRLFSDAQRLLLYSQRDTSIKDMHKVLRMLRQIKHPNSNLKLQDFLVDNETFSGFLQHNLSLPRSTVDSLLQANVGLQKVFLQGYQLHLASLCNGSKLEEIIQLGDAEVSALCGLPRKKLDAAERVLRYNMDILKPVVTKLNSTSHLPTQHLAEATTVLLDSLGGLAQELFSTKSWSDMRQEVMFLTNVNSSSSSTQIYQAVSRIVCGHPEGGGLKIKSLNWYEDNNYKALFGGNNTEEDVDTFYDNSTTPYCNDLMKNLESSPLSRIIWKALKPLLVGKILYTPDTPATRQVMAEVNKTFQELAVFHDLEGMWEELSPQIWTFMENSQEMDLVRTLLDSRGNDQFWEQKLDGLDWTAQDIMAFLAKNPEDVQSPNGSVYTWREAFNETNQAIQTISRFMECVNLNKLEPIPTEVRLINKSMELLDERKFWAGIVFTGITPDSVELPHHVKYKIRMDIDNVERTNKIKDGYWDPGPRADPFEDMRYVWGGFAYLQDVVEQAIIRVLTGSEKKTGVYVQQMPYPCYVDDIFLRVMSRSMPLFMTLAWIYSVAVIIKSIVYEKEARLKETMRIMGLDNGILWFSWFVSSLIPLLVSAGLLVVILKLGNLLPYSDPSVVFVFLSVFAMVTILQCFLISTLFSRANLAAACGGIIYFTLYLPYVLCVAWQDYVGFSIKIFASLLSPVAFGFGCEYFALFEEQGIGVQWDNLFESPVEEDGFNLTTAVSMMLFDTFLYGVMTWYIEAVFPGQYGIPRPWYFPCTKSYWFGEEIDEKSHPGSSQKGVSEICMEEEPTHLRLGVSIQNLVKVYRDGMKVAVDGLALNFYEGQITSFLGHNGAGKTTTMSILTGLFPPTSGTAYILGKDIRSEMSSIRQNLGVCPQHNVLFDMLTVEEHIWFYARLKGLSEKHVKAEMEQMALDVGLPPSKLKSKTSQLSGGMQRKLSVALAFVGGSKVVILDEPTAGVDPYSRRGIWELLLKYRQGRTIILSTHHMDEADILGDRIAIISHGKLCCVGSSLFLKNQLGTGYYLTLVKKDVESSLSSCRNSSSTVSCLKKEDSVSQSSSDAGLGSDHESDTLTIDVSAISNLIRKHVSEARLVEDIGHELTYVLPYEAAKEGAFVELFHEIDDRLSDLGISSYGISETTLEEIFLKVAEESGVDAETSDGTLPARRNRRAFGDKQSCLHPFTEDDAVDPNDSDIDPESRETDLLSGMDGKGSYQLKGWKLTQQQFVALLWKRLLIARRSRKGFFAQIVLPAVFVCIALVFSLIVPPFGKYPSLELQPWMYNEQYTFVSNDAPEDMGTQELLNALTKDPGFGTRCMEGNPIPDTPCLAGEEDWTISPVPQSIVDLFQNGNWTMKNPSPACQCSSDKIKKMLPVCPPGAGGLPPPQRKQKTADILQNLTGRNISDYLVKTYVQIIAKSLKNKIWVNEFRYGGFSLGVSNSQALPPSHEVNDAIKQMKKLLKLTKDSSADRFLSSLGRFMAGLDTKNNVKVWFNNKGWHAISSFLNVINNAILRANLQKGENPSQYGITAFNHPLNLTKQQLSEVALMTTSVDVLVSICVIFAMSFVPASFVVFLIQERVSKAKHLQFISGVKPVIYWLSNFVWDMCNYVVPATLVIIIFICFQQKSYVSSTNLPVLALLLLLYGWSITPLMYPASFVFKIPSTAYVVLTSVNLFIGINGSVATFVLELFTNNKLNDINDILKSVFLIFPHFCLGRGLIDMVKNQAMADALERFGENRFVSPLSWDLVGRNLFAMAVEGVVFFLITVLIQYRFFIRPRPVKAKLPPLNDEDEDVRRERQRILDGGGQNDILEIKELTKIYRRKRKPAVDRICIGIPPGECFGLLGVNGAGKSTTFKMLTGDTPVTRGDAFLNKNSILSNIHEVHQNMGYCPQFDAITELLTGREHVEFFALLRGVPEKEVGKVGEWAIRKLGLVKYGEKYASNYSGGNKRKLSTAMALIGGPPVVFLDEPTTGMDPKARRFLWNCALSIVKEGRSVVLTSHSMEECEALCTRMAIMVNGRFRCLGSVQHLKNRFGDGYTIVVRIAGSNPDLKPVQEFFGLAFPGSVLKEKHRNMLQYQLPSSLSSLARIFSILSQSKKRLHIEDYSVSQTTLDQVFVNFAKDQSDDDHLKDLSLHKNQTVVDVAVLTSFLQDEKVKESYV

As to apolipoprotein A-I [apo A-I], the “Km, cholesterol efflux” value in the data set with ABCA1 [1] (6 h) was 3.82±1.81 μg/ml and 0.15±0.05 μM. For the same substance, in the data set with ABCA1 [1], the “Vmax, cholesterol efflux” value is recorded as 6.90±1.06 % efflux/6h. Also, the Km with ABCA1 [2] (acceptor in human plasma 1 h 37°C, 2.8% HDL fraction, 4 h, BHK-ABCA1, Fig 7A/7B, read-out: Km, cholesterol efflux, plasma (Fig 7)) is 0.03 ± 0.008 µM; in the data set with ABCA1 [2] (efflux condition plasma, 4 h, BHK-ABCA1, Table 1, mean ± SD, read-out: Km, cholesterol efflux, plasma (Table 1)) it was 0.02 ± 0.0091 µM. In the data set with ABCA1 [2] (acceptor in human plasma 1 h 37°C, 2.8% HDL fraction, BHK-ABCA1, Fig 7A/7B), the “Vmax, cholesterol efflux, plasma (Fig 7)” value was 9.26±0.29 % efflux/4h. The “Vmax, cholesterol efflux, plasma (Table 1)” value with ABCA1 [2] (efflux condition plasma, 4 h, BHK-ABCA1, Table 1, mean ± SD) was 8.81±0.33 % efflux/4h. Also, the “appKm, HDL specific cholesterol efflux, plasma apo A-I alone” value with ABCA1 [2] (no peptide, 5 min, 37°C, efflux 4 h, Lineweaver-Burk, listed as plasma apo A-I) is 28 ± 0.072 µM and 28 ± 0.07 µM.

A word on the Km: it is the concentration of substrate that gives half-maximal velocity.
